Data taken from patent publication US20260043020A1, “BINDING MEMBERS WITH ALTERED DIVERSITY SCAFFOLD DOMAINS” (priority 2016, published 2026).

B1: KB_B11: KnotBody, EETI-II in VL CDR1; VL SEQ ID NO: 86 (antibody, V domains shown)
VL: QSVLTQPPSVSEAPRQRVTITCGSRPCPRILMRCKQDSDCLAGCVCGPNGFCGSHNWYQQLPGSSPTTVIYEDNQRPSGVPDRFSGSIDRSSNSASLTISGLKTEDEADYYCQSYDSSNHRVVFGGGTKLTVLGQP
modifications: heavy chain missing; CDR1_F_02
B2: F01: KnotBody with EET 5-3 framed EETI-II in kappa VL CDR2; SEQ ID NO: 312 (protein)
chain: DIQMTQSPSSLSASVGDRVTITCRASQSISSYLNWYQQKPGKAPKLLIDAAGECGPNGFCGSGSDGGVCPRINMRCKQDSDCLAGCGRDSGVPSRFSGSGSGTDFTLTISSLQPEDFATYYCQQSYSTPWTFGQGTKVEIKRT
modifications: F01 (101798)
B3: KB_C09: KnotBody, EETI-II in VL CDR2; VL SEQ ID NO: 120 (antibody, V domains shown)
VL: QSVLTQPPSVSEAPRQRVTITCSGSSSNIGNNAVNWYQQLPGKAPKLLIYAAGRCPRILMRCKQDSDCLAGCVCGPNGFCGGGSGVPDRFSGSIDSSSNSASLTISGLRAEDEADYYCQSYDSSNHWVFGGGTKLTVLGQP
modifications: EETI-II in VL CDR2; CDR2_C_08
B4: KB_C10: KnotBody, EETI-II in VL CDR2; VL SEQ ID NO: 123 (antibody, V domains shown)
VL: QSVLTQPPSVSEAPRQRVTITCSGSSSNIGNNAVNWYQQLPGKAPKLLIYAAGPCPRILMRCKQDSDCLAGCVCGPNGFCGADSGVSDRFSGSKSGTSASLAITGLQAEDEGDYYCAAWDDSLNGLVFGGGTKVTVLGQP
modifications: EETI-II in VL CDR2; CDR2_E_05
B5: F07: KnotBody with EET 5-3 framed EETI-II in VL CDR2; SEQ ID NO: 314 (protein)
chain: QSVLTQPPSVSEAPRQRVTITCSGSSSNIGNNAVNWYQQLPGKAPKLLIYAAGGCGPNGFCGSGSDGGVCPRILMRCKQDSDCLAGCGGQSGVPDRFSGSKSGTSASLAISRLQSEDEADYYCAAWDDSLNAYVFGTGTKVTVLGQP
modifications: F07 (72824)
B6: G11: KnotBody with EET 5-3 framed EETI-II in VL CDR2; SEQ ID NO: 317 (protein)
chain: QSVLTQPPSVSEAPRQRVTITCSGSSSNIGNNAVNWYQQLPGKAPKLLIYAAGGCGPNGFCGSGSDGGVCPRILMRCKQDSDCLAGCGQSSGVSDRFSGSKSGTSATLDITGLQTGDEADYYCGTWDNSLSVGVFGGGTKVTVLGQP
modifications: G11 (27650)

Legend:
trypsin [1] = biological target: T1, trypsin (Bos taurus, UniProt P00760); experiment: Monoclonal phage TRF binding assay on trypsin (KnotBody clones and GlyAla mutants); details: for % reduction in binding signal: GlyAla mutant (EETI-II Pro3 to Gly, Arg4 to Ala) of the clone versus the clone, monoclonal phage, trypsin on streptavidin plates; for Tryspin binding signal (FU): monoclonal phage supernatant of round-2 clones, biotinylated trypsin on neutravidin plates
T1 construct: gene PRSS1
T1 sequence (P00760 24-246): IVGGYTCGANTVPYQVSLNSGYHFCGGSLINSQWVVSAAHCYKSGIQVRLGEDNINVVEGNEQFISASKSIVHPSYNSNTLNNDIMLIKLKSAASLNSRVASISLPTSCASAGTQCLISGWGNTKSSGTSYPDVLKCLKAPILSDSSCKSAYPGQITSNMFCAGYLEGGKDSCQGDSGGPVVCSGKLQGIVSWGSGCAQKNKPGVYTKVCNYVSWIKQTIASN
Experimental: Phage display technology facilitates isolation of binders to any given target from large combinatorial repertoires based on proteins and peptides that can be presented on the surface of filamentous phage^105. In order to isolate functional knottin-antibody fusions from the KnotBody libraries multiple rounds of phage display selections on trypsin (cognate antigen for the EETI-II donor) were carried out. Phage particles were prepared by rescuing KnotBody libraries using trypsin cleavable helper phage^102,106Two rounds of phage display selections were performed on 10 μg/ml biotinylated trypsin immobilised on Streptavidin (for Round-1) or Neutravidin (for round-2) coated Maxisorp™ immunotubes (Thermo Scientific, Cat No. 444202). In both rounds of selection, phage libraries were pre-incubated with streptavidin coated paramagnetic beads (Thermo Fisher Scientific, Cat. No. 11205D). These beads were removed prior to the addition the phage to the antigen tubes to limit the streptavidin binders entering the selection. Polyclonal phage preparations from round-2 selection outputs were analysed for trypsin binding using a time resolved fluorescence (TRF) binding assay. In this assay, polyclonal phage binding to biotinylated trypsin immobilised on neutravidin (Thermo Fisher Scientific, Cat. No 31000) coated Maxisorp™ plates (Thermo Scientific, Cat. No. 437111) was detected using a mouse anti-M13 antibody (GE Healthcare, Cat. No. 27-9420-01) followed by europium conjugated anti-mouse antibody (Perkin Elmer, Cat. No. AD0124).
In order to identify monoclonal KnotBodies with desired binding characteristics, 94 individual clones derived from 2 rounds of selection using EETI-II CDR1 or CDR2 libraries were picked into 96 well culture plates and phage were prepared from each clone. Methods for screening by monoclonal phage ELISA are known in the art^107. […] Clones with >3× binding signal above background were picked as positive clones and sequenced to identify unique clones. 14 and 42 unique binders were identified from EETI-II CDR1 and EETI-II CDR2 libraries respectively (Table 1). 18 binders from the EETI-II CDR2 library and 3 binders from the EETI-II-CDR1 library were chosen for further characterisation based on their VL and linker sequence diversity. These binders were assigned new clone identification numbers (Table 2).
The trypsin binding capability of EETI-II is attributed to proline (Pro3) and arginine (Arg4) residues present in its loop1 (GCPRILMRC; SEQ ID NO: 68). […] Monoclonal phage was prepared from the 21 selected clones and their mutant equivalents. […] Replacement of the trypsin-binding residues of EETI-II abolished the ability of all KnotBody clones to bind to trypsin (Table 3). In order to confirm that the loss of trypsin binding was not due to reduced expression or display of pIII fusion phage was prepared from 11 (randomly chosen) KnotBodies and their GlyAla variants were analysed on a western blot using an antibody which recognises the product of gene 3 (pIII) using an anti-pIII antibody (MoBiTec GmbH) (FIG. 6).

trypsin [2] = biological target: T1, trypsin; experiment: Monoclonal phage ELISA on trypsin, EET 5-3 framed KnotBodies; format: binding; details: value in brackets after the clone name
Source text: Following selection on trypsin, as described in example 3, positive clones were identified by monoclonal phage ELISA and their sequences determined. Examples of positive clones in CDR1 or CDR 2 of kappa and lambda light chains are shown in Table 29 with the linker sequences shown in lower case and the knottin donor in a 5-3 frame shown in italics. Also shown is the value of ELISA signal attained from monoclonal phage ELISA. The specificity of interaction was further confirmed by mutating the pair of Proline-Arginine residues involved in interaction with trypsin to alanine-alanine which diminished binding (as described in example 3).

trypsin [3] = biological target: T1, trypsin; experiment: KnotBody Fab TRF binding assay on trypsin; details: Fab format

Molecule	% reduction in binding signal (trypsin [1]) [%]	Tryspin binding signal (FU) (trypsin [1])	ELISA signal from monoclonal phage ELISA (trypsin [2])	TRF signal for 0.6 ug/mL Fab (trypsin [3])	TRF signal for 2.4 ug/mL Fab (trypsin [3])	TRF signal for 10 ug/mL Fab (trypsin [3])
B1	100	10286	–	–	–	–
B2	–	–	F01 (101798)	–	–	–
B3	100	89424	–	46788	204878	288988
B4	100	118631	–	41709	146488	238066
B5	–	–	F07(72824)	–	–	–
B6	–	–	G11 (27650)	–	–	–
